From publication PMC4342579, “A new cytoplasmic interaction between junctin and ryanodine receptor Ca^2+ release channels” (Journal of Cell Science, 2015)
Ends that are not written are not given here. * marks the point of attachment. Biotin = O=C1N[C@H]2[C@H](CS[C@H]2CCCCC(=O)*)N1

Assays:
[1] = biological target: RyR1 purified from rabbit skeletal muscle (rabbit) (UniProt P11716)
[2] = biological target: RyR1 purified from rabbit skeletal muscle (rabbit) (UniProt P11716); remark: listed apart in the source
[3] = biological target: T1, full length recombinant mouse RyR2 (mouse, UniProt E9Q401 1-4966); test: pull-down; NeutrAvidin–agarose affinity chromatography: biotinylated Njun or scrambled Njun on the agarose, recombinant RyR or RyR1 fragments (isolated from HEK293) incubated overnight at 4°C in PBS plus 0.1% SDS; RyR detected with 34C or anti-GFP antibody; conditions: both partners purified
T1 construct: ryanodine receptor 2 (RyR2), mouse, recombinant; Cell line of Koop et al., 2008; also called recombinant RyR2

[4] = biological target: T2, RyR1 purified from rabbit skeletal muscle (rabbit, UniProt P11716 1-5037); test: cell-based or functional assay
[5] = biological target: T2, RyR1 purified from rabbit skeletal …; test: pull-down; affinity chromatography: biotinylated canine KEKE peptide on streptavidin–agarose, purified RyR1 or RyR2; conditions: both partners purified

Chain of RyR1 purified from rabbit skeletal muscle (rabbit) (P11716 whole entry, the tested form may be a part): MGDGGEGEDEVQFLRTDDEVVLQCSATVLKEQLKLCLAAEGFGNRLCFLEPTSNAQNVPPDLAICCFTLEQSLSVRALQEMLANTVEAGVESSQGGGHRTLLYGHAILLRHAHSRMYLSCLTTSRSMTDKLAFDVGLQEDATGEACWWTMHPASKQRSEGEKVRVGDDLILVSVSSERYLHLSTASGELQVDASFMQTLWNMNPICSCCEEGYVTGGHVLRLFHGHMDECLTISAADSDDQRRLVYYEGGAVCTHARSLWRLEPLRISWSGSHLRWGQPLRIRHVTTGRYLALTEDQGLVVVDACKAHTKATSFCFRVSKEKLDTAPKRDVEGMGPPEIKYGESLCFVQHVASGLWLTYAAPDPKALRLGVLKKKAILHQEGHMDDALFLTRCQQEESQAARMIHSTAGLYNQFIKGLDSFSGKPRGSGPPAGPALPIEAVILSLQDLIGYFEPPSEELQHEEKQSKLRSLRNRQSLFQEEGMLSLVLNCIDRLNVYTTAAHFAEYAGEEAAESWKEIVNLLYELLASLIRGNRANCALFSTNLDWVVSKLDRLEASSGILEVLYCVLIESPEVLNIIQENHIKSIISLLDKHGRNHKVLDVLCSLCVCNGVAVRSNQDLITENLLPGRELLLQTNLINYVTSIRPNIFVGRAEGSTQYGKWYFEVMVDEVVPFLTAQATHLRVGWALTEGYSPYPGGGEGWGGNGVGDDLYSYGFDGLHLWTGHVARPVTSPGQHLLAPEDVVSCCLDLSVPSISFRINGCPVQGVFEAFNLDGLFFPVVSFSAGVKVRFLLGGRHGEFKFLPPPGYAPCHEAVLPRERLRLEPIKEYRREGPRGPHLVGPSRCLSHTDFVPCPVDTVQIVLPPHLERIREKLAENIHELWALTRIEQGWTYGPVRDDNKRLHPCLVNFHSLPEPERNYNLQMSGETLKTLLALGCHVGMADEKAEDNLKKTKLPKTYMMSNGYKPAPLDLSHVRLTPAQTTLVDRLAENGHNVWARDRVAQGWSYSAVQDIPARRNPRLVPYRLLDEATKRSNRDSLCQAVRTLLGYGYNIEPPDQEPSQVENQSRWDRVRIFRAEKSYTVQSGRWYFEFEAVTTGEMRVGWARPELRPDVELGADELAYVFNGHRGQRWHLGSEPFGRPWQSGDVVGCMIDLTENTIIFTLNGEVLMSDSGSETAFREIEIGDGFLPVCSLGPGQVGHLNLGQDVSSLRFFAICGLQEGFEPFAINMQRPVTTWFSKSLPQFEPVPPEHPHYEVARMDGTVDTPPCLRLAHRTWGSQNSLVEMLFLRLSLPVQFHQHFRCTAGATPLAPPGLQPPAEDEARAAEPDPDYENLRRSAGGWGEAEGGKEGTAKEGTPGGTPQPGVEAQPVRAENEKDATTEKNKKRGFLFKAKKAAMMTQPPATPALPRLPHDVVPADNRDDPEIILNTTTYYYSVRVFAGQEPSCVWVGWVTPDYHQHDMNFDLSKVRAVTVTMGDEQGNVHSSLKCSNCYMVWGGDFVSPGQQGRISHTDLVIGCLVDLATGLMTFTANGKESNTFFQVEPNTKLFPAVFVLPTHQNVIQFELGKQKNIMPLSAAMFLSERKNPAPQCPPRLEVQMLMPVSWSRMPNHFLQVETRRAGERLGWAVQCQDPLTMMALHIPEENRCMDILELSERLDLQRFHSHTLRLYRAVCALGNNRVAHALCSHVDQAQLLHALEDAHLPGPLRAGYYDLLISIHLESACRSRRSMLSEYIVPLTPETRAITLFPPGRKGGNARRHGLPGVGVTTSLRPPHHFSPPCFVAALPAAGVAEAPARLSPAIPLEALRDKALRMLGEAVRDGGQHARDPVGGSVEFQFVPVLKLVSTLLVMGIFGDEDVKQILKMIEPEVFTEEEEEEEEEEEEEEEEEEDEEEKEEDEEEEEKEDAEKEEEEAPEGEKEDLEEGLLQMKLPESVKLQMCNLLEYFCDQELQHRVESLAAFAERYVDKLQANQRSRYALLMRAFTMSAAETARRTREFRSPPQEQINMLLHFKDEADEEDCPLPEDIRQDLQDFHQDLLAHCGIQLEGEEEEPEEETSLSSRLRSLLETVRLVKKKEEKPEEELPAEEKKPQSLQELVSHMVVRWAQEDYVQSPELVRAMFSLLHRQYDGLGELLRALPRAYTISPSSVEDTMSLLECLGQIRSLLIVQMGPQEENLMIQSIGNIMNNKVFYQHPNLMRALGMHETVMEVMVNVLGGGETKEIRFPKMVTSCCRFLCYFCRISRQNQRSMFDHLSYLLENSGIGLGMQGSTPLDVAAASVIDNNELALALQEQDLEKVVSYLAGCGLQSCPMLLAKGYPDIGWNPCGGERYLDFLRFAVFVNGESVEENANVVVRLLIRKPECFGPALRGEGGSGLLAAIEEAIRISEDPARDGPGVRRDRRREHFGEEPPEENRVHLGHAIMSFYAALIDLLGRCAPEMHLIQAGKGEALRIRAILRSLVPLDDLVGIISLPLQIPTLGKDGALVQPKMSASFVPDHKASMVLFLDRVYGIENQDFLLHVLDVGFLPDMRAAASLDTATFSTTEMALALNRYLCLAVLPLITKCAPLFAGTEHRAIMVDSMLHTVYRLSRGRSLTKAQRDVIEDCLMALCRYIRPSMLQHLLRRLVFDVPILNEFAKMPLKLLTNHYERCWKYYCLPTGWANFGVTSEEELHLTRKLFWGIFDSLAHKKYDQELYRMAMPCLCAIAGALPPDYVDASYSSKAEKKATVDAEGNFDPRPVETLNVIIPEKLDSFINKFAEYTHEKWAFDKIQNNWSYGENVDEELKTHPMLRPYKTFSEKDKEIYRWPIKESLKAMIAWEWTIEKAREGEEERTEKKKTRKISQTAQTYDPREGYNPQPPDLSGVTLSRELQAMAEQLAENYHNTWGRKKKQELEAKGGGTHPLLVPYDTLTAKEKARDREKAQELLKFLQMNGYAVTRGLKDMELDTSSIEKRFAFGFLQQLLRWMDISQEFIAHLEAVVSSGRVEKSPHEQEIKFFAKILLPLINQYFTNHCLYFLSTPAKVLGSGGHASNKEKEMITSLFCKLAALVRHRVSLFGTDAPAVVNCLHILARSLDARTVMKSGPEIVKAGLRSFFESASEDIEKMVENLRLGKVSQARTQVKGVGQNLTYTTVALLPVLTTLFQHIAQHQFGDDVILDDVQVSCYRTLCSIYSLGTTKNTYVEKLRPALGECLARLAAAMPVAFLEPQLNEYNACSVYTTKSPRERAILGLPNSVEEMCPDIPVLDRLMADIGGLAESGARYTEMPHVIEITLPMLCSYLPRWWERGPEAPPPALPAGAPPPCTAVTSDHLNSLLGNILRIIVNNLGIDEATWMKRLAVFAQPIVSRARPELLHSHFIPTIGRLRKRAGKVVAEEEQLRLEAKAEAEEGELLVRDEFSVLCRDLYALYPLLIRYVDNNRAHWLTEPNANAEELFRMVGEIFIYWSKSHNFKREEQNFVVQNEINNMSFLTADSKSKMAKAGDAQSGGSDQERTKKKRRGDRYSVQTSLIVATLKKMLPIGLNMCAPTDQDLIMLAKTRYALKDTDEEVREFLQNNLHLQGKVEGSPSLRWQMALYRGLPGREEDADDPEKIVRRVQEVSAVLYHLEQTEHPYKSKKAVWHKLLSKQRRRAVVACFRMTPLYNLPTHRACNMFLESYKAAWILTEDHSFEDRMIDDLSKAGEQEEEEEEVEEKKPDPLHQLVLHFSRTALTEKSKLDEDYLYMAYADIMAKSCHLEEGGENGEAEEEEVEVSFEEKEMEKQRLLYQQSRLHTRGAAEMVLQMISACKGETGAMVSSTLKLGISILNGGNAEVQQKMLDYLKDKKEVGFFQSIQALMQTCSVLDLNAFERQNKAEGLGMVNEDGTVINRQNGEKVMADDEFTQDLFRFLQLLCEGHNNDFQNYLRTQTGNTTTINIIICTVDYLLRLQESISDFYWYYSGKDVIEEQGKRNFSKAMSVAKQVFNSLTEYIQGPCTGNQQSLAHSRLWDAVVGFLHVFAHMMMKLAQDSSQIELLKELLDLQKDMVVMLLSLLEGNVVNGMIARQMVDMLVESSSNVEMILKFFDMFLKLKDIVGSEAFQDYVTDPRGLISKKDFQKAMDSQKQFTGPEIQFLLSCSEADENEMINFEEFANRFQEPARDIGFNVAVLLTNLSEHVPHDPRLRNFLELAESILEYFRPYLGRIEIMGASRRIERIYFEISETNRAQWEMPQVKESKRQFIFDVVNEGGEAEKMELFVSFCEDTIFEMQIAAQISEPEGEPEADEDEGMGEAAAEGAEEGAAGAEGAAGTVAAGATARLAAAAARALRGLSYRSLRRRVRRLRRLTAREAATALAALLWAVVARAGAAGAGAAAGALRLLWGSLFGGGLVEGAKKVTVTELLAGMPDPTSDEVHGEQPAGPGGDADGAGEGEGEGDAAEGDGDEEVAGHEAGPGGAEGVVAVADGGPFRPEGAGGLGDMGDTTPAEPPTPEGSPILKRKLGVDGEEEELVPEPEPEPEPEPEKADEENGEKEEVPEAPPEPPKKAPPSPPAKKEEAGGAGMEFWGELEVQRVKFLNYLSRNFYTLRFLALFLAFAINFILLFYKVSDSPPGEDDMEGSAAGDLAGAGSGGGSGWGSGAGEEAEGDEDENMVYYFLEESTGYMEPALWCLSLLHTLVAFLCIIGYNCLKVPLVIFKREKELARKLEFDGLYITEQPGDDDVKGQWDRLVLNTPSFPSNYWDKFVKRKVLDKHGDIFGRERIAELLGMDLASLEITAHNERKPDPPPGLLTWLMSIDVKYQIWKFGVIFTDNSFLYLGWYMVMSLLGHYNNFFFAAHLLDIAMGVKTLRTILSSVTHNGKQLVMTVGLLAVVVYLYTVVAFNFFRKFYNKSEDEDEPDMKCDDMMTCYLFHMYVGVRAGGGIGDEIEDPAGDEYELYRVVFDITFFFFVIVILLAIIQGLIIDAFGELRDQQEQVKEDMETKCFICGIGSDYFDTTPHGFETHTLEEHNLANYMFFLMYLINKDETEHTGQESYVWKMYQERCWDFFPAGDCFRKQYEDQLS
T2 sequence (P11716 whole entry): as the sequence (P11716 whole entry, the tested form may be a part) above

## full-length junctin isolated from rabbit skeletal muscle (natural protein)
[1]
  open probability of purified RyR1 channels in lipid bilayers, 213 nM FLjun in the luminal solution, increase over control: 1.9 fold

## C-terminal domain of canine junctin (amino acids 46–210), His6-tagged (domain or fragment)
[2]
  open probability (Po) of purified RyR1 channels in lipid bilayers, 213 nM Cjun in the luminal solution, relative to control: 0.68 of control

B1: Njun peptide, N-terminal cytoplasmic domain of junctin (residues 1–22), biotinylated (peptide)
peptide: Biotin-MAEETKHGGHKNGRKGGLSQSS
notes: junctin, N-terminal cytoplasmic domain, residues 1-22; also called biotinylated Njun; junctin cytoplasmic domain; source: synthetic peptide
[3]
  binding result: binds
[4]
  open probability of purified RyR1 channels in lipid bilayers, 213 nM Njun in the cytoplasmic solution, increase over control: 5 fold

B2: Cjun KEKE motif peptide (canine), residues 84–105, biotinylated (peptide)
peptide: Biotin-KRKTKAKVKELTKEELKKEKEK
notes: junctin, canine, KEKE motif, residues 84-105; also called canine KEKE peptide; KEKE peptide; source: synthetic peptide
[5]
  binding result: binds
